Where two headings read alike, the source gives them in different places.

Series [1] concerns the target T1, StAckA (Salmonella typhimurium acetate kinase, AckA) (Salmonella enterica, UniProt P63411).
T1 construct: expressed in E. coli; Ni-NTA and gel filtration; homodimer
T1 sequence (P63411 1-400): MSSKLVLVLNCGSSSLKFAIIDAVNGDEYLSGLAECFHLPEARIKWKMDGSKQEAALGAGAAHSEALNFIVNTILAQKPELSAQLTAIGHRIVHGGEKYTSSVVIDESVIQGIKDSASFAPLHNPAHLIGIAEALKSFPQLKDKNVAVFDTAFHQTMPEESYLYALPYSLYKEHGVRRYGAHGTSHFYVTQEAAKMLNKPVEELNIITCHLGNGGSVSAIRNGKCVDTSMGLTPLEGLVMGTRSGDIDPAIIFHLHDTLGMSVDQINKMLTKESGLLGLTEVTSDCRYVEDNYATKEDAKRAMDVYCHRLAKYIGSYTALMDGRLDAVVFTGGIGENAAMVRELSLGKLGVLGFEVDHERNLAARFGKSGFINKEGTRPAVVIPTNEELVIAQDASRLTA
The series can be described thus: CD thermal denaturation. It counts as binding. Conditions: ligand close to its Km, pH 7.5; unliganded reference Tm 45 °C.

The target of series [2] is T1, StAckA (Salmonella typhimurium acetate kinase, AckA). Put plainly: kinetic assay after […] min preincubation at […] °C with inhibitor. The class given is biochemical.
Series [3] has the same target. The series can be described thus: initial velocity assay, acetyl-phosphate synthesis direction. It counts as biochemical. The note with it: co-substrate acetate, Mg2+, pH 7.5, 37 °C. From the text:
(§1) initial velocity assay, acetyl-phosphate synthesis direction on StAckA (Salmonella typhimurium acetate kinase, AckA)

Series [4] shares this target. The series can be described thus: X-ray crystal structure, […] Å. It counts as binding. The note with it: dimeric interface pocket, one citrate per dimer; citrate from crystallization condition.
Series [5] has the same target. The series can be described thus: CD thermal denaturation. The class given is binding. Conditions: read-out: dTm.
For series [6] the target is unchanged. Put plainly: inhibition of acetate utilization, kinetic assay. The note with it: equimolar to acetate; not a substrate. It counts as biochemical.
Substrate in series [7]: CC(=O)O
Put plainly: purified protein. Conditions: ATP, Mg2+, pH 7.5, 37 °C.

Substrate in series [8]: CCC(=O)O
The series can be described thus: purified protein. It counts as biochemical, Salmonella enterica. The note with it: ATP, Mg2+, pH 7.5, 37 °C.

Substrate in series [9]: CC(=O)OP(=O)(O)O
The series can be described thus: purified protein. It counts as biochemical, Salmonella enterica. Conditions: reverse reaction (ATP synthesis), ADP, Mg2+, pH 7.5, 37 °C.

Substrate in series [10]: Nc1ncnc2c1ncn2[C@@H]1O[C@H](COP(=O)(O)OP(=O)(O)O)[C@@H](O)[C@H]1O
The series can be described thus: purified protein. It counts as biochemical, Salmonella enterica. The note with it: reverse reaction (ATP synthesis), acetyl-phosphate, Mg2+, pH 7.5, 37 °C.

Substrate in series [11]: Nc1ncnc2c1ncn2[C@@H]1O[C@H](COP(=O)(O)OP(=O)(O)OP(=O)(O)O)[C@@H](O)[C@H]1O
Put plainly: purified protein. The note with it: co-substrate acetate, Mg2+, pH 7.5, 37 °C. It counts as biochemical, Salmonella enterica.

Substrate in series [12]: O=c1ccn([C@@H]2O[C@H](COP(=O)(O)OP(=O)(O)OP(=O)(O)O)[C@@H](O)[C@H]2O)c(=O)[nH]1
The series can be described thus: initial velocity assay, acetyl-phosphate synthesis direction. The class given is biochemical, Salmonella enterica. Conditions: co-substrate acetate, Mg2+, pH 7.5, 37 °C.
Excerpt: as §1

Substrate in series [13]: Nc1nc2c(ncn2[C@@H]2O[C@H](COP(=O)(O)OP(=O)(O)OP(=O)(O)O)[C@@H](O)[C@H]2O)c(=O)[nH]1
Described as above. The class given is biochemical, Salmonella enterica. The note with it: co-substrate acetate, Mg2+, pH 7.5, 37 °C.
Excerpt: as §1

Turning to `CC(=O)OP(=O)(O)O` [Acetyl-phosphate], the Tm in series [1] came to 54 °C.

`O=C(O)CCC(=O)C(=O)O` [α-KG]: the IC50 in [2] (read-out: kcat(s^-1)) came to 7 ± 1.8 mM.

In the case of `CCC(=O)C(=O)O` [2-KB], the IC50 in series [2] (read-out: [I]) is 3 ± 1.3 mM.

Regarding `Nc1ccn([C@@H]2O[C@H](COP(=O)(O)OP(=O)(O)OP(=O)(O)O)[C@@H](O)[C@H]2O)c(=O)n1` [CTP], in series [3], the “kcat/Km(s^-1 mM^-1)” value turned out to be 88 ± 42 µM.

Regarding `O=C(O)CCC(=O)O` [Succinate], the IC50 in series [2] (read-out: Vmax(μmol min^-1 mg^-1)) was found to be 75 ± 20 mM.

Consider `NCCC(N)C(=O)O` (stereo not drawn) [2,4-DAB], for which, in series [2] (read-out: kcat/Km(s^-1 mM^-1), saturating cognate ligand, 37 °C), the IC50 came to 5 ± 2.2 mM.

With `O=C(O)C[C@H](O)C(=O)O` [Malate], the IC50 in series [2] (read-out: [I]) was 1 ± 0.5 mM.

Regarding `O=C(O)CC(O)(CC(=O)O)C(=O)O` [Citrate], in series [4], the “X-ray crystal structure, 1.90 Å” value is reported as “only one citrate binds at the dimeric interface resulting in an asymmetric dimer”. The IC50 in series [2] (read-out: Km) turned out to be 63 ± 15 mM. The ΔTm at 10000 µM in series [5] stood at 10 °C.

For the molecule `CCCC(=O)O` [butyrate], the “% reduction of rate at equimolar concentration” value in [6] is given as 40%.

With `Nc1ncnc2c1ncn2[C@@H]1O[C@H](COP(=O)(O)OP(=O)(O)O)[C@@H](O)[C@H]1O` [ADP], the Tm in series [1] was 52 °C.

B1: StAckA (Salmonella typhimurium acetate kinase, AckA) (Salmonella enterica subsp. enterica serovar Typhimurium str. LT2) (protein)
chain: MSSKLVLVLNCGSSSLKFAIIDAVNGDEYLSGLAECFHLPEARIKWKMDGSKQEAALGAGAAHSEALNFIVNTILAQKPELSAQLTAIGHRIVHGGEKYTSSVVIDESVIQGIKDSASFAPLHNPAHLIGIAEALKSFPQLKDKNVAVFDTAFHQTMPEESYLYALPYSLYKEHGVRRYGAHGTSHFYVTQEAAKMLNKPVEELNIITCHLGNGGSVSAIRNGKCVDTSMGLTPLEGLVMGTRSGDIDPAIIFHLHDTLGMSVDQINKMLTKESGLLGLTEVTSDCRYVEDNYATKEDAKRAMDVYCHRLAKYIGSYTALMDGRLDAVVFTGGIGENAAMVRELSLGKLGVLGFEVDHERNLAARFGKSGFINKEGTRPAVVIPTNEELVIAQDASRLTA
notes: expressed in E. coli; Ni-NTA and gel filtration; homodimer
Consider B1, for which the Km was 1200 ± 100 µM in the series “purified protein [7]”; 11200 ± 100 µM in “purified protein [8]”; 280 ± 40 µM in “purified protein [9]”; 100 ± 3 µM in “purified protein [10]”; 70 ± 5 µM in the series “purified protein [11]”; 96 ± 58 µM in series [12]. The Km in series [13] is 78 ± 27 µM. The Vmax in “purified protein [7]” stood at 1560 µmol/min/mg; in the series “purified protein [8]” it was 1250 µmol/min/mg; in the series “purified protein [9]”, 2350 µmol/min/mg; in “purified protein [10]” it was 2340 µmol/min/mg; in the series “purified protein [11]”, 1550 µmol/min/mg. The kcat/Km in “purified protein [7]” came out at 985000 M⁻¹ s⁻¹; in “purified protein [8]” it was 85000 ± 10000 M⁻¹ s⁻¹; in the series “purified protein [9]”, 6.3e+06 ± 45000 M⁻¹ s⁻¹; in “purified protein [10]” it was 1.7645e+07 ± 10000 M⁻¹ s⁻¹; in the series “purified protein [11]” it was 1.686e+07 ± 50000 M⁻¹ s⁻¹. For the same molecule, the kcat turned out to be 940 ± 85 s⁻¹ in “purified protein [8]”, 1760 ± 25 s⁻¹ in the series “purified protein [9]”, 1750 ± 65 s⁻¹ in “purified protein [10]” and 1170 ± 85 s⁻¹ in the series “purified protein [11]”.

A word on the Tm: it is the temperature at which the thermal transition is half complete. The term Km denotes the concentration of substrate that gives half-maximal velocity. As usually defined, the Vmax is the rate approached at saturating substrate. In general, kcat/Km refers to the second-order rate constant that governs catalysis at low substrate concentration. As usually defined, the kcat is the number of substrate molecules converted per active site and unit of time at saturation.
